# In the RNAGym collection of RNA variant scans (doi:10.7554/elife.80360):
# B1: HDV Ribozyme (parent)
# chain: GGCCGGCAUGGUCCCAGCCUCCUCGCUGGCGCCGGCUGGGCAACAUUCCGAGGGGACCGUCCCCUCGGUAAUGGCGAAUGGGACCCA
# Variants of: B1
# Assay: self-cleavage, relative activity (ratio to wild type); higher = more cleavage; co-transcriptional
row,Variant,self-cleavage
1,U60A C63A,0.849
2,C30G G74A,0.0733
3,G31A U47C,0.424
4,C15U U37C,0.923
5,A42C C49A,0.262
6,C19U C63U,0.134
7,C63G G80C,0.147
8,C18G U46G,0.0692
9,C7U U47A,0.554
10,G39C C66G,0.185
11,G10U C33G,0.0511
12,U12C G31U,0.0386
13,U27G C66A,0.532
14,G31A G34U,0.0863
15,U20A A51C,0
16,U12C C64A,0.344
17,G31A G80C,0.185
18,G1C G67C,0.111
19,U60A A71C,0.73
20,C14G G39U,0.237
21,G38C G50C,0.35
22,C18U C57U,0.867
23,C15A G53U,0.808
24,U23G A83G,0.237

row,Variant,self-cleavage
1,C15U U60A,1.15
2,G17C C44G,0.0723
3,G40A C85U,1.1
4,G2A C33U,0.035
5,G40A G82A,0.358
6,G5C A83G,0.0519
7,C15U G76A,0.997
8,A16G G31U,0.375
9,G17U G35C,0.125
10,C48G A70C,0.6
11,A78U A87C,0.31
12,A16U U72G,0.465
13,G53A A71U,0.904
14,G55U C66A,0.986
15,G53C A87U,0.903
16,G34A C75G,0.203
17,G35C U37A,0
18,C30U U69A,0.594
19,A56C G59A,1.05
20,C36A C58A,0.227
21,C3G G67A,0.682
22,G1C C84U,0.128
23,G1U G6U,0.429
24,C15U C57A,1.03

row,Variant,self-cleavage
1,G2A A43U,0.0203
2,G34C A43U,0
3,G6A G17U,0.0773
4,G6A C18G,0.115
5,U27C C44G,0.277
6,U47G C48A,0.798
7,C7A U27G,0.447
8,G40C A87U,0.325
9,G31U G54U,0.369
10,C14G A45C,0.434
11,C19G G53C,0.0852
12,U46G A51G,0.739
13,G2C G55A,0.0941
14,G28C G68C,0.138
15,C33A A71G,0.289
16,A43U,0.546
17,G5A C86U,0.396
18,C24U U27G,0.431
19,G53A G74C,0.265
20,G54U C66G,0.882
21,C4G G25A,0.0256
22,C22A C41A,0.475
23,U9A A42G,0.361
24,G76U G81U,0.462

row,Variant,self-cleavage
1,C41A G68C,0.665
2,G5A C19A,0.0723
3,C21A G50A,0.111
4,U9C C13G,0.158
5,C41A C58U,0.778
6,G28C A83G,0.0542
7,G6U A51G,0.475
8,C18G U47G,0.256
9,U46A G50C,0.597
10,C19U G54C,0.2
11,G40U C86A,0.682
12,A8U G55U,0.635
13,C22U G34C,0.0852
14,U46C G73C,0.525
15,G34C G74C,0.0875
16,A8C C13A,0.266
17,G25C U72A,0.0791
18,C7U U9C,1.02
19,C26A C63A,0.724
20,G40U C48A,0.76
21,A16U A43G,0.453
22,C15G C32A,0.158
23,G39U A51G,0.818
24,G10U A83U,0.177

row,Variant,self-cleavage
1,C62A G74C,0.113
2,C15A U72G,0.277
3,C7A A78C,0.0554
4,A78U A83G,0.285
5,C15A U47G,0.35
6,A51G G52C,0.789
7,C61U C84U,0.636
8,U9A C13U,1.36
9,C14U G50A,1.01
10,C75G G80U,0.104
11,G2C G81A,0.0511
12,C26G G80U,0.261
13,G28C C49U,0.111
14,C44G G82C,0.0504
15,C32U G80A,0.256
16,A43C C49U,0.684
17,G34U C36A,0.106
18,G10C C32A,0.185
19,A8C C84U,0.462
20,A8U C48G,1.25
21,C19U A83G,0.0985
22,C84U A87U,0.946
23,C26G C32A,0.326
24,G54U G76C,0.73

row,Variant,self-cleavage
1,A8C C48A,1.35
2,C7U G73U,0.277
3,C13G G35U,0.0504
4,G50C A51G,1.07
5,A45C G54C,0.653
6,C13A U60C,0.0573
7,U20G G52C,0.256
8,G1C G40A,0.111
9,C58A A78C,0.108
10,A16U C49A,0.895
11,C18U C33U,0.463
12,G34U U72C,0.164
13,C30G A78G,0.0923
14,C3G C21G,0
15,C21G C75G,0.0426
16,C64U A83C,0.332
17,C19A C33U,0
18,G17U A45U,0.244
19,U23C G50C,0.864
20,C18G G68C,0.119
21,A51U G55U,0.989
22,G40C A78C,0.147
23,C75G C84U,0.0978
24,C33U,0.847

row,Variant,self-cleavage
1,A8C U47A,0.519
2,U20G C57G,0.208
3,C3A,0.641
4,G35A A87C,0.444
5,C15G C63A,0.684
6,G6C G39C,0.293
7,G5A G55C,0.104
8,C66A C75G,0.181
9,G67U U79A,0.601
10,G39C U65A,0.0462
11,C3A C75U,0.128
12,U69A C84A,0.935
13,C7A G17A,0.0475
14,G38A G55U,0.19
15,U23C A51C,1.08
16,G6U C7U,0.151
17,G52C C58U,1.24
18,U46A C64A,0.554
19,A43C C86A,0.443
20,G80C G82U,0.0782
21,C24U A42G,0.0923
22,C32A U69A,0.0652
23,C26G G35U,0.499
24,U37G A77G,0.0831

row,Variant,self-cleavage
1,U37A G81U,0.0875
2,G31U U60G,0.212
3,C33U G38U,0.0978
4,C7A G74C,0.131
5,G40C C85A,0.128
6,C13U G38U,0.149
7,G11C A45C,0.116
8,C14G C58U,0.646
9,C62G C63U,0.604
10,G31C G39A,0.0554
11,A70C G81U,0.249
12,U12A C24U,0.135
13,C24U G80A,0.0525
14,C66U G81A,0.509
15,U27C C62G,0.615
16,U9C U65C,1.22
17,C33U G34A,0.293
18,G53C,0.97
19,G17U C44G,0.222
20,U23A G53C,1.12
21,C33G C66U,0.181
22,C64G A77U,0.506
23,C41U A43U,0.489
24,C22U G68U,0.572

row,Variant,self-cleavage
1,G10A G31U,0.226
2,C15U A45U,0.831
3,U27G A83G,0.755
4,G11U C49U,0.386
5,G6C U72G,0.229
6,C19G G67A,0.0779
7,G2U C41U,0.0419
8,C13U C24A,0.381
9,G53U C61A,1.02
10,A51C C57U,0.969
11,C15U C24A,0.482
12,U12G C22A,0.277
13,U27A U69A,0.831
14,G5C G25A,0.0639
15,G55U G82C,0.233
16,G17U C64A,0.601
17,G25C G38A,0.259
18,A45G C61A,1.15
19,G17U A71C,0.383
20,G11C C66U,0.289
21,U60C G81C,0.291
22,U27C U65A,0.957
23,U9A C21G,0.0462
24,C33G A45G,0.447

row,Variant,self-cleavage
1,C3U A56G,0.831
2,C32U U79C,0.201
3,G1C A83U,0.252
4,A70U C75U,0.219
5,A8C G53C,0.739
6,C7U C63G,0.569
7,C19G A56U,0.0573
8,G31A C57U,0.421
9,U60G G81C,0.268
10,C19G G81A,0.117
11,C61A C75G,0.177
12,G81A C84A,0.339
13,C3A G35U,1.14
14,G11C G54C,0.291
15,C7A C62A,0.618
16,G31C G67U,0.402
17,G25A G52U,0.169
18,U27C G81C,0.369
19,G5U G68A,0.697
20,C48U G67C,1.01
21,G28C U46G,0.0755
22,G1C G52A,0.166
23,C13U G53U,0.671
24,A45G G82C,0.391

row,Variant,self-cleavage
1,A51G G53C,0.665
2,U27A A51U,0.739
3,C13G A56U,0
4,C3U C33U,0.769
5,G31A C32G,0.198
6,C14A A43C,0.0396
7,G39C U72C,0.155
8,C18A G35C,0.147
9,A8U A77U,0.0898
10,C22A G67A,0.185
11,G53A C57A,0.866
12,G54A C84U,0.563
13,C75G U79A,0.123
14,G10A U37G,0.198
15,G1A C4A,0.166
16,C57U A77C,0.415
17,C75A U79C,0.0707
18,G17U C33U,0.326
19,C19A A51G,0.0712
20,G11C C48G,0.399
21,C4G C48U,0.306
22,G2U C61G,0.0386
23,C14G C21A,0.0504
24,C62G A78U,0.297

row,Variant,self-cleavage
1,C44U A77U,0.111
2,G29A A51G,0.366
3,G40C C64A,0.138
4,G53U U60C,0.923
5,G11C C44A,0.0923
6,A8U G54A,0.831
7,G74C U79G,0.302
8,C41U A83U,0.583
9,U46G A70C,0.665
10,G31C C32G,0.0396
11,C7G U72A,0.0755
12,G39A U65C,0.463
13,C13G U60A,0.237
14,C3G C26G,0.753
15,C30G G35U,0.138
16,C22U C58G,0.511
17,A16U U79C,0.705
18,G74U A78G,0.185
19,U9A U65G,1.11
20,G40C C84G,0.128
21,G40A G67C,0.992
22,A16G C19A,0.237
23,C19A C85U,0.166
24,U9G G80U,0.289

row,Variant,self-cleavage
1,G2C G80C,0.154
2,G17U C19A,0.166
3,U60A C62U,1.08
4,C3A G17A,0.104
5,C64A A83U,0.511
6,U12C C21U,0
7,U12C C21G,0.0791
8,G28U C66A,0.197
9,G25A G82A,0.0978
10,C4G A43C,0.0519
11,G5C C61A,0.432
12,G1U C33U,0.436
13,U27C A42U,0.475
14,U12G C49G,0.787
15,U46C G52U,1.05
16,C19U A56C,0.0936
17,C30G G31C,0.104
18,G10U A78G,0.449
19,G1U G35C,0.191
20,U27A A83C,0.739
21,G29A C85U,0.0978
22,A8G C15G,0.262
23,G28A A78C,0.0378
24,G10U C66G,0.717

row,Variant,self-cleavage
1,A70U C86G,0.872
2,G25C C49U,0.222
3,C14U C66G,0.884
4,G35C A71C,0
5,A8U U60G,0.89
6,U27G G35C,0.0594
7,C30G C84A,0
8,A70G A87C,0.883
9,C18U C30A,0.156
10,G6C C36U,0.175
11,U46C U79G,0.554
12,C18G C61G,0.219
13,G76U A78U,0.475
14,G54C C84A,0.598
15,C19U U37A,0.0936
16,G67U C84A,0.746
17,G29U A45C,0.113
18,G81A C85G,0.175
19,C3G U79C,0.182
20,C41A C48A,0.982
21,C84G C86U,0.675
22,C44G A70C,0.831
